In the supplement of paper PMC10126150:
± gives the standard deviation of the averaged measurements.

system: ATP; assay: switch fluorescence ratio, 500 uM ATP over buffer (Cy3 cluster intensity, sum of 5 cycles each) (fold (ratio)); higher = stronger signal-on switching upon ATP binding; sequences stand for … in TCGTCGGCAGCGTCAGATGTGTATAAGAGACAGTTTTTTTTTTTTTTTTTTTTTTTTT…TC; conditions: aptamer strand: ATP DNA aptamer (quencher-CACCTGGGGGAGTATTGCGGAGGAAGG + anchor), 100 nM annealed; ATP concentration: 500 uM
Method in brief: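 Switching-strand clusters labelled with Cy3 on a modified Illumina MiSeq flow-cell were annealed to 100 nM quencher-labelled ATP aptamer, imaged in selection buffer, and re-imaged after 15 min with 500 uM ATP at 22 °C. This was done over five cycles with NaOH stripping and re-annealing in between. The fluorescence ratio is summed target-cycle over summed buffer-cycle Cy3 intensity per cluster, averaged per switch-domain sequence, excluding clusters outside 100-1000 RFU.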
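Note: ATP exposure 15 min at 22 °C before imaging.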

Sequence | switch fluorescence ratio
CTCAATTCTG | 0.969 ± 0.031
CTCAGACAGC | 1.107 ± 0.0056
CTCAGAGAAG | 1.02 ± 0.058
CTCAGGGCCG | 1.05 ± 0.11
CTCAGGGGGG | 1.02 ± 0.04
CTCAGGTGGC | 1.04 ± 0.053
CTCATATAGC | 0.999 ± 0.019
CTCATCGGCT | 1.03 ± 0.03
CTCATCTAAT | 0.9821 ± 0.0081
CTCCATATGT | 1.039 ± 0.0016
CTCCGGTTTG | 2.03 ± 1.4
CTCCGTGGGG | 1.47 ± 0.042
CTCCTCAGTG | 2.26 ± 0.29
CTCGAGAGCT | 0.973 ± 0.018
CTCGATAGGA | 1.02 ± 0.0083
CTCGATGTGG | 0.985 ± 0.044
CTCGCACGTT | 1.03 ± 0.032
CTCGCAGGAA | 1.75 ± 0.078
CTCGCGTTAA | 1.11 ± 0.13
CTCGCTAGGA | 1.05 ± 0.019
CTCGCTCGTG | 1.03 ± 0.016
CTCGCTTTTT | 1.2 ± 0.29
CTCGGAACTA | 1.04 ± 0.03
CTCGGACAAG | 0.9964 ± 0.0058
CTCGGCCGGC | 0.982 ± 0.049
CTCGGGACTT | 0.9884 ± 0.0024

Sequence | switch fluorescence ratio
CTCGGGAGTA | 1 ± 0.042
CTCGGGCACG | 0.989 ± 0.046
CTCGGGGAGT | 1.012 ± 0.0064
CTCGGTTGAC | 1.07 ± 0.015
CTCGGTTGGT | 1.006 ± 0.0083
CTCGTACTTA | 1 ± 0.019
CTCGTCAATT | 1.52 ± 0.24
CTCGTCACTC | 1.232 ± 0.0097
CTCGTGTGTG | 1.044 ± 0.0073
CTCGTTCCGG | 0.997 ± 0.043
CTCGTTTTTG | 0.972 ± 0.012
CTCTACAGGG | 1.04 ± 0.042
CTCTGAGGTT | 1 ± 0.035
CTCTGCGGTT | 1.891 ± 0.0039
CTCTGTGTTA | 1.06 ± 0.015
CTCTTAAGGG | 1.01 ± 0.018
CTCTTGAATA | 0.9957 ± 0.0015
CTCTTTGCC | 1.17 ± 0.27
CTGAAAAATT | 1.01 ± 0.078
CTGAAAGAGT | 0.976 ± 0.026
CTGAAAGGGA | 1.01 ± 0.02
CTGAACTTTA | 1.04 ± 0.043
CTGAAGCTCA | 1.91 ± 0.044
CTGAAGGGAC | 1.15 ± 0.036
CTGAAGGGCT | 1.04 ± 0.017
CTGAATATTC | 1.021 ± 0.0036

Sequence | switch fluorescence ratio
CTGAATCCGT | 1.25 ± 0.036
CTGAATTAGT | 1.01 ± 0.019
CTGACTGCAG | 1.01 ± 0.049
CTGAGGATCG | 0.994 ± 0.034
CTGAGGCCCG | 0.984 ± 0.05
CTGAGGGCTG | 1.03 ± 0.028
CTGAGGGGCG | 1.04 ± 0.057
CTGAGGGGGG | 0.985 ± 0.019
CTGAGTATGT | 0.988 ± 0.015
CTGAGTCGTG | 1 ± 0.066
CTGAGTGGGA | 1.02 ± 0.013
CTGATAACAT | 1.02 ± 0.018
CTGATGAGAG | 0.997 ± 0.051
CTGATGTCGT | 1.01 ± 0.033
CTGATTCAGA | 0.98 ± 0.019
CTGCAACAGA | 1.0455 ± 0.00015
CTGCAACGGA | 1.13 ± 0.056
CTGCACCATG | 1.01 ± 0.028
CTGCCAATGG | 1.99 ± 0.053
CTGCCAGATG | 1.1 ± 0.054
CTGCCCGGCG | 1.03 ± 0.027
CTGCGGGGAT | 1.02 ± 0.027
CTGCGGGGGG | 0.999 ± 0.015
CTGCGGGGGT | 1.03 ± 0.038
CTGCGTGCGG | 0.99635 ± 0.00049
CTGCGTGGAG | 1.03 ± 0.026

Sequence | switch fluorescence ratio
CTGCTACAGT | 1.03 ± 0.02
CTGCTCCGAT | 1.21 ± 0.034
CTGGAAAACC | 1.02 ± 0.0058
CTGGAACAGT | 0.976 ± 0.015
CTGGAATAGC | 2.21 ± 0.3
CTGGAATGGG | 1.02 ± 0.056
CTGGACTTAC | 1.34 ± 0.052
CTGGAGACAG | 1.07 ± 0.018
CTGGATTTAA | 1.0192 ± 7.7e-05
CTGGCGCGGG | 1.02 ± 0.042
CTGGCTACGG | 1.01 ± 0.032
CTGGCTGCGG | 1.01 ± 0.039
CTGGGACCTA | 1.02 ± 0.027
CTGGGAGAGC | 1.05 ± 0.053
CTGGGAGTGT | 0.9946 ± 0.0092
CTGGGATTTT | 0.959 ± 0.0021
CTGGGCAGGG | 1.02 ± 0.055
CTGGGCGGTT | 0.9959 ± 0.0017
CTGGGGAAAC | 1.03 ± 0.064
CTGGGGAAAG | 1.02 ± 0.033
CTGGGGACCT | 1.1 ± 0.066
CTGGGGAGGA | 0.997 ± 0.028
CTGGGGAGGC | 1.06 ± 0.041
CTGGGGCAGA | 1.02 ± 0.011
CTGGGGGCAA | 3.2 ± 0.68
CTGGGGGTAA | 0.992 ± 0.02

Sequence | switch fluorescence ratio
CTGGGGGTAG | 1.01 ± 0.016
CTGGGGGTTG | 0.989 ± 0.044
CTGGGTCGGG | 0.992 ± 0.0079
CTGGGTGGGC | 0.993 ± 0.018
CTGGGTGTGC | 1.01 ± 0.02
CTGGTACAGA | 0.97 ± 0.13
CTGGTATTTG | 1.05 ± 0.041
CTGGTCACAG | 1 ± 0.024
CTGGTCATCT | 0.991 ± 0.011
CTGGTCGGCT | 1.09 ± 0.014
CTGGTCTATT | 0.968 ± 0.017
CTGGTGATTT | 1.05 ± 0.053
CTGGTGCCGA | 0.985 ± 0.015
CTGGTGGGGT | 1.02 ± 0.044
CTGGTGTCGA | 0.978 ± 0.013
CTGGTTACAC | 1.03 ± 0.033
CTGGTTAGGA | 1 ± 0.066
CTGGTTAGGC | 1.01 ± 0.034
CTGGTTTGCC | 0.974 ± 0.048
CTGGTTTGGA | 1 ± 0.022
CTGTAAGCGG | 1.03 ± 0.03
CTGTAATTGT | 0.98817 ± 0.00075
CTGTACAAGC | 1.15 ± 0.03
CTGTACGACA | 1.18 ± 0.02
CTGTACTGGG | 0.9989 ± 0.0061
CTGTAGGGAC | 1.18 ± 0.025

Sequence | switch fluorescence ratio
CTGTAGTAGC | 2.38 ± 1.1
CTGTATATGG | 0.985 ± 0.042
CTGTATATTT | 0.9593 ± 0.0055
CTGTATTACG | 0.995 ± 0.027
CTGTATTATA | 0.996 ± 0.031
CTGTATTCTG | 0.962 ± 0.015
CTGTCAACGG | 1.02 ± 0.017
CTGTCATTTG | 0.985 ± 0.03
CTGTCCTAAT | 1.009 ± 0.0049
CTGTCCTAGG | 1.036 ± 0.0033
CTGTCGACTT | 0.986 ± 0.011
CTGTCGCTTA | 1.01 ± 0.019
CTGTCGTGTC | 0.9934 ± 0.003
CTGTGACCGT | 1.02 ± 0.025
CTGTGCGTGG | 0.973 ± 0.029
CTGTGGCTAT | 1.01 ± 0.023
CTGTGGCTCG | 0.9986 ± 0.0057
CTGTGGCTGG | 0.9795 ± 0.0073
CTGTGGGTTA | 0.9595 ± 0.004
CTGTGTGGCC | 0.968 ± 0.073
CTGTGTGTTA | 0.9816 ± 0.0036
CTGTGTTTGG | 0.997 ± 0.038
CTGTTAAAGG | 0.999 ± 0.013
